Experimental data as given in US11548914B2, “IL-2Rgamma binding compounds” (MEDIKINE, INC., priority 2018, dated 2023).
Ends that are not written are not given here.

Key:
[1] = target: T1, IL-2Rγc subunit (Homo sapiens, UniProt P31785); experiment: competitive binding of synthetic peptides against phage clones on IL-2Rγc; settings: for competition with phage clone peptide SEQ ID NO 198: phage family 1A; for competition with phage clone peptide SEQ ID NO 224: phage family 1B; for competition with phage clone peptide SEQ ID NO 236: phage family 2; for competition with phage clone peptide SEQ ID NO 248: phage family 3; for competition with phage clone peptide SEQ ID NO 266: phage family 4; for competition with phage clone peptide SEQ ID NO 948: phage family 5
T1 construct: Fc; purchased ACRObiosystems, Inc. ILG-H5256
T1 sequence (P31785 23-254): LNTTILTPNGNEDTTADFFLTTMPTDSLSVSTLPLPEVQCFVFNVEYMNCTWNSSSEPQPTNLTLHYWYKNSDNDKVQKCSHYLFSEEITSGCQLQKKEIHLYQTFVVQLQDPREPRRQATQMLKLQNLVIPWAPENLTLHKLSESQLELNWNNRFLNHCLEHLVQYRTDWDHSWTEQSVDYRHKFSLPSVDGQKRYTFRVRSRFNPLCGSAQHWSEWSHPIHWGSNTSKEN
Procedure: (§1) Representative phage clones displaying peptides from IL-2Rβ ligand families were bound to the extracellular domain (ECD) of IL-2Rβ immobilized in microtiter wells. Phage binding was conducted in the presence and absence of synthetic test peptides to determine if phage peptides and test peptides competed for binding to the same sites on IL-2Rβ . Synthetic test peptides were selected to represent peptides from IL-2Rβ ligand families, as well positive and negative control peptides.
(§2) Phage binding to the immobilized IL-2Rβ ECD was detected by staining with antibody against phage coat proteins (anti-phage Ab), staining with labeled secondary antibody against the anti-phage Ab, and scored by reading OD in the microtiter plate optical reader.
(§3) The ELISA signal for each phage binding in the presence and absence of the test peptides was compared to determine which synthetic peptides competed with which phage peptides for binding to the IL-2Rβ subunit.
A similar study was performed to evaluate the binding of IL-2Rγc ligands.

[2] = target: T2, extracellular domain (ECD) of IL-2Rβ (Homo sapiens, UniProt P14784); experiment: competitive binding of synthetic peptides against phage clones on IL-2Rβ; settings: for competition with phage clone peptide SEQ ID NO: 58: phage family 1; for competition with phage clone peptide SEQ ID NO: 170: phage family 2A; for competition with phage clone peptide SEQ ID NO: 83: phage family 2B; for competition with phage clone peptide SEQ ID NO: 1034: phage family 2C; for competition with phage clone peptide SEQ ID NO: 1044: phage family 4
T2 construct: Fc; purchased ACRObiosystems, Inc. ILB-H5253
T2 sequence (P14784 27-239): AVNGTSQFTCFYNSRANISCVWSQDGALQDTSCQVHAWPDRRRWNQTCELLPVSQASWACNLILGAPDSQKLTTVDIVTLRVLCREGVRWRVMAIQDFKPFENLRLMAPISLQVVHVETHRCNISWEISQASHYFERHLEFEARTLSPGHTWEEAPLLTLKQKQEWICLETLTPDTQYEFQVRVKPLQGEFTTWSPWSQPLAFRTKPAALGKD
Procedure: as §1, §2, §3

[3] = test system: NK-92 cells; experiment: STAT5 phosphorylation in NK-92 cells; type: cell-based, human; settings: NK-92 cells, 10, 1, 0.1 μM, 30 min
Procedure: NK-92 cells were seeded in a 24-well plate at 4×10^5 cells, in 1 mL starvation medium (SM), and incubated overnight at 37° C., 5% CO2. The starvation medium contained RPMI 1640+20% FBS+2 mM L-glutamine+1 mM NaPyr+10 mM HEPES+0.1 mM BME (no rhIL-2 supplement).
Treatment mixtures were of 1 μg/mL Anti-hIL-2 neutralizing antibody (0.2 mg/mL stock) or goat IgG control (1 mg/mL stock) were prepared.
The treatment mixtures and the antibody mix were added to the cells for 30 min at 37° C., 5% CO2. Each sample was then transferred to a 1.5 mL microfuge tube and spun down at 1,500 RPM for 5 minutes. The cells were washed in 1 mL PBS and centrifuged again.
A phosphatase and protease inhibitor cocktail (Thermo #78442) were added to mPER buffer at a 1:100 dilution. After the cells were pelleted, 50 μL of mPER buffer was added to each sample and pipetted repeatedly to homogenize.
The lysates were centrifuged at 14,000 RPM for 5 min at RT. The supernatants were transferred to clean tubes and stored frozen at −80° C.
The treatment reagents included Anti-STAT5 Antibody (rabbit), Cell Signaling No. 94205S; Anti-pSTAT5 Antibody (rabbit), Cell Signaling No. 4322S; and Goat anti-rabbit IgG-HRP, Jackson Immunoresearch No. 111-035-144.

Row | Substance | competition with phage clone peptide SEQ ID NO 198 [1] | competition with phage clone peptide SEQ ID NO 224 [1] | competition with phage clone peptide SEQ ID NO 236 [1] | competition with phage clone peptide SEQ ID NO 248 [1] | competition with phage clone peptide SEQ ID NO 266 [1] | competition with phage clone peptide SEQ ID NO 948 [1] | competition with phage clone peptide SEQ ID NO: 58 [2] | competition with phage clone peptide SEQ ID NO: 170 [2] | competition with phage clone peptide SEQ ID NO: 83 [2] | competition with phage clone peptide SEQ ID NO: 1034 [2] | competition with phage clone peptide SEQ ID NO: 1044 [2] | further results
1 | 948 (SLLKCYNASTCASVF) [compound 948] |  |  |  |  |  |  |  |  |  |  |  | competition for binding to the IL-2Rγc binding site with the group of IL-2Rγc ligands [1]: does not compete
2 | 236 (MCWLEWGEWVGSCL) [Peptide 236] | + (Peptide competes with phage binding.) | + (Peptide competes with phage binding.) | + (Peptide competes with phage binding.) | + (Peptide competes with phage binding.) | + (Peptide competes with phage binding.) | − |  |  |  |  |  | 
3 | 1044 (RSCYYKRPRLWCSE) [compound 1044] |  |  |  |  |  |  |  |  |  |  |  | competition for binding to the IL-2Rβ binding site with the group of IL-2Rβ ligands [2]: does not compete
4 | 248 (DLSDLCTFWLSQ) [Peptide 248] | + (Peptide competes with phage binding.) | + (Peptide competes with phage binding.) | + (Peptide competes with phage binding.) | + (Peptide competes with phage binding.) | + (Peptide competes with phage binding.) | − |  |  |  |  |  | 
5 | Compound B: heterodimer of SEQ. ID. NO: 58 and SEQ ID. NO. 237 (chain 1 YDCRIAQVGELCDL; chain 2 LCFSEFLGEWVDCN; cysteine pairing not given here; also: heterodimer, linkage not given here) |  |  |  |  |  |  |  |  |  |  |  | STAT5 phosphorylation (pSTAT5), Western Blot [3]: induced (in a dose-responsive manner) STAT5 phosphorylation
6 | 202 (RTCTEWENVVLCWV) [Peptide 202] | +^1 (Peptide competes with phage binding.) | + (Peptide competes with phage binding.) | + (Peptide competes with phage binding.) | + (Peptide competes with phage binding.) | + (Peptide competes with phage binding.) | − |  |  |  |  |  | 
7 | 224 (DCSMWEGVELCW) [Peptide 224] | + (Peptide competes with phage binding.) | + (Peptide competes with phage binding.) | + (Peptide competes with phage binding.) | + (Peptide competes with phage binding.) | + (Peptide competes with phage binding.) | − | − | − | − | − | − | 
8 | 58 (YDCRIAQVGELCDL) [Peptide 58] | − | − | − | − | − | − | +^1 (Peptide competes with phage binding.) | + (Peptide competes with phage binding.) | + (Peptide competes with phage binding.) | + (Peptide competes with phage binding.) | − | 
9 | 1044 (RSCYYKRPRLWCSE) [Peptide 1044] |  |  |  |  |  |  | −^2 | − | − | − | − | 
10 | Compound A: heterodimer of SEQ. ID. NO: 58 and SEQ ID. NO. 224 (chain 1 YDCRIAQVGELCDL; chain 2 DCSMWEGVELCW; cysteine pairing not given here; also: heterodimer, linkage not given here) |  |  |  |  |  |  |  |  |  |  |  | STAT5 phosphorylation (pSTAT5), Western Blot [3]: induced (in a dose-responsive manner) STAT5 phosphorylation
11 | 224 (DCSMWEGVELCW) [compound 224] |  |  |  |  |  |  |  |  |  |  |  | competition for binding to the IL-2Rβ binding site with the group of IL-2Rβ ligands [2]: does not compete
12 | 58 (YDCRIAQVGELCDL) [compound 58] |  |  |  |  |  |  |  |  |  |  |  | competition for binding to the IL-2Rγc binding site with the group of IL-2Rγc ligands [1]: does not compete

The next lines start with results.

Row | competition with phage clone peptide SEQ ID NO 198 [1] | competition with phage clone peptide SEQ ID NO 224 [1] | competition with phage clone peptide SEQ ID NO 236 [1] | competition with phage clone peptide SEQ ID NO 248 [1] | competition with phage clone peptide SEQ ID NO 266 [1] | competition with phage clone peptide SEQ ID NO 948 [1] | competition with phage clone peptide SEQ ID NO: 58 [2] | competition with phage clone peptide SEQ ID NO: 170 [2] | competition with phage clone peptide SEQ ID NO: 83 [2] | competition with phage clone peptide SEQ ID NO: 1034 [2] | competition with phage clone peptide SEQ ID NO: 1044 [2] | Substance | further results
13 | −^2 | − | − | − | − | + (Peptide competes with phage binding.) |  |  |  |  |  | 948 (SLLKCYNASTCASVF) [Peptide 948] | 
14 |  |  |  |  |  |  | + (Peptide competes with phage binding.) | + (Peptide competes with phage binding.) | + (Peptide competes with phage binding.) | + (Peptide competes with phage binding.) | − | 169 (NMCLVGDYWPSCQI) [Peptide 169] | 
15 |  |  |  |  |  |  | + (Peptide competes with phage binding.) | + (Peptide competes with phage binding.) | + (Peptide competes with phage binding.) | + (Peptide competes with phage binding.) | − | 1042 (CYEVGDYCQSPL) [Peptide 1042] | 
